Our source for the protein stability index values is the supplement of paper PMC10567573.

The chains are these.
B1: ZER1 (parent)
chain: FDGPEAWGVCEPQREEVEERMWAA
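Also: lentivirally expressed fusions sorted by FACS into six bins by GFP to DsRed ratio, PSI derived from sequencing read proportions per bin multiplied by bin number.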

Variants of B1 are the subject of this series. The series is described as follows: protein stability index of a GFP-peptide fusion (GPS, HEK-293T) (PSI 1-6); higher = more stable. Conditions: c terminus: a fixed tail appended.
Turning to FDGPEAWGVCEPQREEVWERMWAA [E18W], the protein stability index was determined as 2.04.
The figure for FDGPEAWGVCEPQREEVLERMWAA [E18L] is 2.11; for FDGPEAWGVCEPQREEVCERMWAA [E18C] it is 2.
Next, FDGPEAWGVCEPQREEVVERMWAA [E18V]: 2.12; FDGPEAWGVCEPQREEVRERMWAA [E18R]: 2.53.
As for FDGPEAWGVCEPQREEVQERMWAA [E18Q], the protein stability index came to 1.95.
The figure for FDGPEAWGVCEPQREEVPERMWAA [E18P] is 2.69.
Regarding FDGPEAWGVCEPQREEVDERMWAA [E18D], the protein stability index amounted to 2.68.
Next, FDGPEAWGVCEPQREEVYERMWAA [E18Y]: 2.08; FDGPEAWGVCEPQREEVTERMWAA [E18T]: 2.62; FDGPEAWGVCEPQREEVMERMWAA [E18M]: 1.84.
The figure for FDGPEAWGVCEPQREEVNERMWAA [E18N] is 1.92.
Take FDGPEAWGVCEPQREMVEERMWAA [E16M]: the protein stability index was found to be 1.99.
The figure for FDGPEAWGVCEPQRERVEERMWAA [E16R] is 2.16; for FDGPEAWGVCEPQRESVEERMWAA [E16S] it is 2.25; for FDGPEAWGVCEPQREVVEERMWAA [E16V] it is 2.02.
The figure for FDGPEAWGVCEPQRETVEERMWAA [E16T] is 2.72; for FDGPEAWGVCEPQREYVEERMWAA [E16Y] it is 2.11; for FDGPEAWGVCEPQREGVEERMWAA [E16G] it is 2.04.
The figure for FDGPEAWGVCEPQREHVEERMWAA [E16H] is 2.66; for FDGPEAWGVCEPQREKVEERMWAA [E16K] it is 1.98; for FDGPEAWGVCEPQRELVEERMWAA [E16L] it is 1.62.
For the variant FDGPEAWGVCEPQREPVEERMWAA [E16P], the protein stability index was determined as 2.04.
Next, FDGPEAWGVCEPQRENVEERMWAA [E16N]: 2.37; FDGPEAWGVCEPQREIVEERMWAA [E16I]: 2.34.
Next, FDGPEAWGVCEPQREWVEERMWAA [E16W]: 1.63.
The figure for FDGPEAWGVCEPQREEVERRMWAA [E19R] is 2.35; for FDGPEAWGVCEPQREEVEDRMWAA [E19D] it is 2.48; for FDGPEAWGVCEPQREEVEMRMWAA [E19M] it is 2.22.
Consider FDGPEAWGVCEPQREEVEYRMWAA [E19Y], for which the protein stability index turned out to be 1.94.
Next, FDGPEAWGVCEPQREEVECRMWAA [E19C]: 2.05; FDGPEAWGVCEPQREEVEKRMWAA [E19K]: 3.35.
With FDGPEAWGVCEPQREEVELRMWAA [E19L], the protein stability index was found to be 2.17.
The figure for FDGPEAWGVCEPQREEVETRMWAA [E19T] is 2.87.
Next, FDGPEAWGVCEPQREEVEFRMWAA [E19F]: 2.1.
Next, FDGPEAWGVCEPQREEVEGRMWAA [E19G]: 2.15; FDGPEAWGVCEPQREEVEARMWAA [E19A]: 2.68.
As to FDGPEAWGVCEPQREEVESRMWAA [E19S], the protein stability index was found to be 2.45.
Regarding FDGPEAWGVCEPQREEVEHRMWAA [E19H], the protein stability index was 1.91.
Next, FDGPEAWGVCEPQREEVENRMWAA [E19N]: 2.4; FDGPEAWGVCEPQREEVEPRMWAA [E19P]: 2.21; FDGPEAWGVCEPQREEVEIRMWAA [E19I]: 2.09.
As for FDGPEAWGVCEPQREEVEWRMWAA [E19W], the protein stability index is 2.05.
For FDGPEAWGVCEPQREEVEQRMWAA [E19Q], the protein stability index worked out at 2.55.
Next, FDGPEAWGVCEPQREEVEVRMWAA [E19V]: 1.98; FDGPEAWGVCEPQREEVEERAWAA [M21A]: 3.06.
Next, FDGPEAWGVCEPQREEVEERGWAA [M21G]: 3.27; FDGPEAWGVCEPQREEVEERHWAA [M21H]: 2.21; FDGPEAWGVCEPQREEVEERNWAA [M21N]: 2.2.
Regarding FDGPEAWGVCEPQREEVEERFWAA [M21F], the protein stability index amounted to 2.24.
Next, FDGPEAWGVCEPQREEVEERWWAA [M21W]: 2.46; FDGPEAWGVCEPQREEVEERDWAA [M21D]: 3.16; FDGPEAWGVCEPQREEVEERPWAA [M21P]: 2.47.
The figure for FDGPEAWGVCEPQREEVEERSWAA [M21S] is 2.38; for FDGPEAWGVCEPQREEVEERYWAA [M21Y] it is 2.39.
In the case of FDGPEAWGVCEPQREEVEERIWAA [M21I], the protein stability index was determined as 2.63.
Next, FDGPEAWGVCEPQREEVEEREWAA [M21E]: 3.56; FDGPEAWGVCEPQREEVEERTWAA [M21T]: 2.4; FDGPEAWGVCEPQREEVEERKWAA [M21K]: 2.76.
The figure for FDGPEAWGVCEPQREEVEERRWAA [M21R] is 2.69; for FDGPEAWGVCEPQREEVEERCWAA [M21C] it is 2.46.
Next, FDGPEAWGVCEPQREEVEERVWAA [M21V]: 3.45; FDGPEAWGVCEPQREEVEERLWAA [M21L]: 2.71.
For the variant FDGPEAWGVCEPQREEVEERQWAA [M21Q], the protein stability index was 2.89.
Take FDGPEAWGVCEPQREEVEEPMWAA [R20P]: the protein stability index was 2.92.
Next, FDGPEAWGVCEPQREEVEEKMWAA [R20K]: 2.34.
The figure for FDGPEAWGVCEPQREEVEEGMWAA [R20G] is 2.96; for FDGPEAWGVCEPQREEVEEWMWAA [R20W] it is 2.15.
The figure for FDGPEAWGVCEPQREEVEESMWAA [R20S] is 2.79.
Regarding FDGPEAWGVCEPQREEVEEDMWAA [R20D], the protein stability index is 2.94.
The figure for FDGPEAWGVCEPQREEVEEMMWAA [R20M] is 3.09; for FDGPEAWGVCEPQREEVEEEMWAA [R20E] it is 3.17; for FDGPEAWGVCEPQREEVEETMWAA [R20T] it is 3.23.
Turning to FDGPEAWGVCEPQREEVEEFMWAA [R20F], the protein stability index came out at 2.65.
FDGPEAWGVCEPQREEVEEIMWAA [R20I]: the protein stability index was 2.27.
Regarding FDGPEAWGVCEPQREEVEENMWAA [R20N], the protein stability index stood at 2.75.
The figure for FDGPEAWGVCEPQREEVEEQMWAA [R20Q] is 2.77; for FDGPEAWGVCEPQREEVEEHMWAA [R20H] it is 2.55.
The figure for FDGPEAWGVCEPQREEVEEAMWAA [R20A] is 3.1; for FDGPEAWGVCEPQREEVEEYMWAA [R20Y] it is 2.5.
Next, FDGPEAWGVCEPQREEVEEVMWAA [R20V]: 2.67; FDGPEAWGVCEPQREEVEECMWAA [R20C]: 2.6.
With FDGPEAWGVCEPQREEVEELMWAA [R20L], the protein stability index amounted to 2.55.
